Values quoted from earlier work as cited in PMC13292882.

Experiments:
PCNA (Homo sapiens) = PCNA (Homo sapiens) (UniProt P12004); conditions: cited from earlier work
RPA (Homo sapiens) = RPA (Homo sapiens) (UniProt P27694); test: competition peptide displacement; conditions: cited from earlier work
Chain of RPA (Homo sapiens) (P27694 2-616, chain 1 of 3): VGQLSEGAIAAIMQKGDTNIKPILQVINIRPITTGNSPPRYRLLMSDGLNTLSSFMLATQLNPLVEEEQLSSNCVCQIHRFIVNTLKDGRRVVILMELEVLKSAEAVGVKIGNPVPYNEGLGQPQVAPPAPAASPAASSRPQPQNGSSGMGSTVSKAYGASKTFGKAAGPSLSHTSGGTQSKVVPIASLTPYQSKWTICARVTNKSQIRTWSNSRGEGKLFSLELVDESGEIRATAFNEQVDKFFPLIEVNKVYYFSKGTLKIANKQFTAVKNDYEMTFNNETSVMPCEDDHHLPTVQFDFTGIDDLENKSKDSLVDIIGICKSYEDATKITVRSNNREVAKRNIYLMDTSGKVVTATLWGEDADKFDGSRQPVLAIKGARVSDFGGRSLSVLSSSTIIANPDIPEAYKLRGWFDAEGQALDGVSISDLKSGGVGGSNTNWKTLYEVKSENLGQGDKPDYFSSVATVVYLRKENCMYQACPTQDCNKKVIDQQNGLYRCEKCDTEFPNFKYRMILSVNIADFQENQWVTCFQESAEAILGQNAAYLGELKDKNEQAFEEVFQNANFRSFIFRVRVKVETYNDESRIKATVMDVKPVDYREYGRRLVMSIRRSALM
Chain of RPA (Homo sapiens) (P15927 whole entry, chain 2 of 3, further chain): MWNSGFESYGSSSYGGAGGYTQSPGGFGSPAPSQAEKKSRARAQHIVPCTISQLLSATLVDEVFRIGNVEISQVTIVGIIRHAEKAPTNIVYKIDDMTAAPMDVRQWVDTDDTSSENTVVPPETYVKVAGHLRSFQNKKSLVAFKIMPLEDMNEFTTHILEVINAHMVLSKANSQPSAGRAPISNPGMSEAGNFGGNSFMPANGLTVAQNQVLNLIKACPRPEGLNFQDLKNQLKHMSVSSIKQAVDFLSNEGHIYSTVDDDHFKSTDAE
Chain of RPA (Homo sapiens) (P35244 2-121, chain 3 of 3, further chain): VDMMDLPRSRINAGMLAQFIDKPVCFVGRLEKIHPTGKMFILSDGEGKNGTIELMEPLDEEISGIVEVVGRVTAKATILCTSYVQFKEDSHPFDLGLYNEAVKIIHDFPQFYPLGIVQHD

Chain of UNG2 (P13051 whole entry): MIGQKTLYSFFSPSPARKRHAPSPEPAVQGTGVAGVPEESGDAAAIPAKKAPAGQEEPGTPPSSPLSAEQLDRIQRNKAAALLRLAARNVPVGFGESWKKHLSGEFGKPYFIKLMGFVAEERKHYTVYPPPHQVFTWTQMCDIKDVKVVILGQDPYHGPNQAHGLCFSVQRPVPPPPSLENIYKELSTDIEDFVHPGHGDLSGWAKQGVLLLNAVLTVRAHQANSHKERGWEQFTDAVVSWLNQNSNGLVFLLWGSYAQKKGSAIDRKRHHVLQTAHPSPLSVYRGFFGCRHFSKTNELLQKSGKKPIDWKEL
Chain of PCNA (Homo sapiens) (P12004 whole entry): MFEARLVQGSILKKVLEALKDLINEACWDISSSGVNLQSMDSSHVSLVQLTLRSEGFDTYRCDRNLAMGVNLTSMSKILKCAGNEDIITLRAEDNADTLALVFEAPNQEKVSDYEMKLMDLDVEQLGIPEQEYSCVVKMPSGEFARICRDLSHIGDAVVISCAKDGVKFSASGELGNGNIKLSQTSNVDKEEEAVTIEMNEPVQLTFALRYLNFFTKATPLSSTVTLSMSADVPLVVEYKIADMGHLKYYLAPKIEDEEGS

## UNG2 (from UniProt P13051)
PCNA (Homo sapiens)
  Kd: 1 µM
RPA (Homo sapiens)
  Kd: 3 µM
